This passage reports percent of specific activity from total activity, inhibited by 4 mg/ml mannan results from patent US20100196345A1.

The target in this assay is Mannose/N-acetylglucosamine (Man/GlcNAc) receptor on thioglycolate-elicited mouse peritoneal macrophages (mouse) (UniProt Q61830). In words: cell-based or functional assay.
Sequence of Mannose/N-acetylglucosamine (Man/GlcNAc) receptor on thioglycolate-elicited mouse peritoneal macrophages (mouse) (Q61830 20-1456): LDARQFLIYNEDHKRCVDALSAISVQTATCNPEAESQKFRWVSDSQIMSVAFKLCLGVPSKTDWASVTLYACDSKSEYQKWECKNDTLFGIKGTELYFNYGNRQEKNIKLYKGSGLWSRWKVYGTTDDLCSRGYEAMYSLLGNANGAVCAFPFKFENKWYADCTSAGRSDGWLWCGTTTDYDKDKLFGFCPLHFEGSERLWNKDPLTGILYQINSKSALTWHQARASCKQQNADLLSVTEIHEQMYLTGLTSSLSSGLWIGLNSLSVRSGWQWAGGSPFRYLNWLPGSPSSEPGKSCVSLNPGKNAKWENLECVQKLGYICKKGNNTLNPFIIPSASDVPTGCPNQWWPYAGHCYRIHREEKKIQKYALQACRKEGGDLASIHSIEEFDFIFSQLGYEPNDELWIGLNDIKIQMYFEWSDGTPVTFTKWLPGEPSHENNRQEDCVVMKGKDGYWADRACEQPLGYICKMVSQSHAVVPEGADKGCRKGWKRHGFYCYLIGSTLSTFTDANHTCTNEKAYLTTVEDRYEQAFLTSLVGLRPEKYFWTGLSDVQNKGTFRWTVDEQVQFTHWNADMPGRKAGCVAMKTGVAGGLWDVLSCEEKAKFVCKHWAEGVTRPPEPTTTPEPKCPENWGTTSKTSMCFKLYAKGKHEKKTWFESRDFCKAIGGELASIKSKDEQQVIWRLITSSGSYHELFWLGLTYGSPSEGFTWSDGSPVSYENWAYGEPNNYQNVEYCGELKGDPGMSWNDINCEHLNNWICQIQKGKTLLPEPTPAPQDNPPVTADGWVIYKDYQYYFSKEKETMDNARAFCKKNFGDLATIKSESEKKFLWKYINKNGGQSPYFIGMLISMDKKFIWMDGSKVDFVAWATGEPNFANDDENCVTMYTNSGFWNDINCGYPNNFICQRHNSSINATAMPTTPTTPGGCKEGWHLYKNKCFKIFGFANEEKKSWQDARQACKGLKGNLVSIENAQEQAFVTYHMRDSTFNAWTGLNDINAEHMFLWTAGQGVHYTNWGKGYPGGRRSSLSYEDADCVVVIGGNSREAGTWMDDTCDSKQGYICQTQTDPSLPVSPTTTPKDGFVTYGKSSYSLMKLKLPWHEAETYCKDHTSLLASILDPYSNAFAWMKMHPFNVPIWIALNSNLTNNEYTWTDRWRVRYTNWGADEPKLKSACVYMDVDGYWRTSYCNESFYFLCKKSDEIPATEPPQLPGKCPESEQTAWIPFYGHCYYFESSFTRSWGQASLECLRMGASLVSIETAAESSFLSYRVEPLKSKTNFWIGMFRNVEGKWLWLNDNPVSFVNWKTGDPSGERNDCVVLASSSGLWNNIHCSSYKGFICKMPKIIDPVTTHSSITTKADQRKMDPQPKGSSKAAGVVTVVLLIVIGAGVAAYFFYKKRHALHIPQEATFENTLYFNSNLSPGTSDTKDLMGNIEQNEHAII

“Cerezyme (commercial recombinant human GCD produced in mammalian CHO cells) (from UniProt P04062 40-536) (enzyme)” displayed a percent of specific activity from total activity, inhibited by 4 mg/ml mannan of 65%.
